Experimental data from article PMC9175492.

Key:
[1] = target: proteins in FBS (bovine (fetal bovine serum)); assay: fluorescence polarisation
[2] = target: LgBit, an 18-kDa subunit of NanoLuc; assay: split reporter

Kd [1] [µM] | fold induction of luminescence at 10 μM [2] [fold] | Substance
29 |  | FITC-labeled CPP12 (peptide)
 | 200 | CPP12-HiBit conjugate (peptide)
27 |  | TMR-labeled CPP12 (peptide)
1.3 |  | NF-labeled CPP12 (peptide)
